Legend:
[1] = biological target: Replication Protein A (Q9V1Z1, Q9V1Y9, Q9V1Z0), His-tagged RPA complex (Pyrococcus abyssi); assay: SPR; RPA (100 nM, 10 min) held on a 5' biotinylated 32-mer ssDNA on a streptavidin surface; analytes injected at 16.67, 50, 150 and 450 nM; 25°C, PBS Tween 0.5%, 20 uL/min; referenced against ssDNA/RPA dissociation curves; 1:1 binding model
[2] = biological target: A1 subunit of the RNA polymerase, endogenous (Pyrococcus abyssi (endogenous in P. abyssi cell extract))
[3] = biological target: A2 subunit of the RNA polymerase, endogenous (Pyrococcus abyssi (endogenous in P. abyssi cell extract))

| Substance | stability relative to the RPA/catalytic subunit of DNA primase complex (from the dissociation constants of Figure 2) [1] | run-off transcripts in a promoter-specific in vitro transcription assay (gdh promoter; RNAP, TBP and TFB from P. furiosus), RPA 10-50 nM [2] | run-off transcripts in a promoter-specific in vitro transcription assay (gdh promoter; RNAP, TBP and TFB from P. furiosus), RPA 10-50 nM [3] |
| --- | --- | --- | --- |
| DNA Polymerase D (Q9V2F3, Q9V2F4), HIS-tagged complex (from UniProt Q9V2F3 1-619; Q9V2F4 1-1455) | 2 fold | – | – |
| Replication Protein A (Q9V1Z1, Q9V1Y9, Q9V1Z0), His-tagged RPA complex | – | 3 fold | 3 fold |
